Source: patent US20240189439A1
Numbering of substitutions follows the chain as printed.

What was measured:
[1] = molecular target: human PMEL17 (human) (UniProt P40967); assay: FACS titration of IgG on G-361 cells (human melanoma), Alexa Fluor detection antibody
[2] = molecular target: human PMEL17 (human) (UniProt P40967); assay: FACS titration of IgG on G-361 cells (human melanoma), PE detection antibody

human PMEL17 (human), sequence (P40967 25-661): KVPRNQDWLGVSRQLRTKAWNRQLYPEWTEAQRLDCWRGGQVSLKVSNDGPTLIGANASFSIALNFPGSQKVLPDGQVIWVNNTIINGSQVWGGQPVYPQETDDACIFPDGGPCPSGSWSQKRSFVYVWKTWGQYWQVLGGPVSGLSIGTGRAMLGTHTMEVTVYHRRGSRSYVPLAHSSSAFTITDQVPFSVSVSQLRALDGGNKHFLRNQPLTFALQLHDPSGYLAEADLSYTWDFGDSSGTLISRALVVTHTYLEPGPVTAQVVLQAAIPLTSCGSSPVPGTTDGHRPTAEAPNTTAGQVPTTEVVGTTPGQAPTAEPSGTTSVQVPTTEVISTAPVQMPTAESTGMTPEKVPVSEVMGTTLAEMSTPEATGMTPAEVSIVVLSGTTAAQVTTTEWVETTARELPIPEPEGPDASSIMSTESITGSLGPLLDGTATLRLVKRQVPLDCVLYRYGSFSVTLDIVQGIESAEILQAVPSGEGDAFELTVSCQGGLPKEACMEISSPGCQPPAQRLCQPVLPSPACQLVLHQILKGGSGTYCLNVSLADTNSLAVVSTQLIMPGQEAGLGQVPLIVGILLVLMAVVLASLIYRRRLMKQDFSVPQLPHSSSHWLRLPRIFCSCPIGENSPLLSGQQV

B1: Y010900 (antibody, V domains shown)
VH: EVQLVESGGGLVKPGGSLRLSCAASGFTFSNAWMSWVRQAPGKGLEWVGRIKSKTDAGTTDYAAPVKGRFTISRDDSKNTLYLQMNSLKTEDTAVYYCARTIYPSAPSSSLDYWGQGTLVTVSS
VL: DIQMTQSPSSLSASVGDRVTITCRASQGISNYLAWYQQKPGKVPKLLIYAASTLQSGVPSRFSGSGSGTDFTLTISSLQPEDVATYYCQQLIFFPLTFGQGTKVEIK
Work on B1 yielded an EC50 [1] of 1.3 nM.

B2: Y010355 (antibody, V domains shown)
VH: EVQLVESGGGLVKPGGSLRLSCAASGFTFSNYWISWVRQAPGKGLEWVGRIKSKTYGGTTDYAEPVKGRFTISRDDSKNTLYLQMNSLKTEDTAVYYCARTSRRSYAFDYWGQGTLVTVSS
VL: DIQMTQSPSTLSASVGDRVTITCRASQSISSWLAWYQQKPGKAPKLLIYDASSLESGVPSRFSGSGSGTEFTLTISSLQPEDFATYYCQQITRYPVTFGQGTKVEIK
B2 showed an EC50 [2] of 0.5 nM.

B3: Y010356 (antibody, V domains shown)
VH: EVQLVESGGGLVKPGGSLRLSCAASGFTFSNYWISWVRQAPGKGLEWVGRIKSKTYGGTTDYAEPVKGRFTISRDDSKNTLYLQMNSLKTEDTAVYYCARVSGYYSHSGGFDVWGQGTLVTVSS
VL: B1 VL with Q90K, L91T, I92W, F93R, F94T, L96G
For B3, the EC50 [2] was 1.6 nM.

B4: MOR024354 (antibody, V domains shown)
VH: QVQLLESGGGLVQPGGSLRLSCAASGFTFSSFGMSWVRQAPGKGLEWVSAISYSGSDTYYADSVKGRFTISRDNSKNTLYLQMNSLRAEDTAVYYCARDVGVMDYWGQGTLVTVSS
VL: SYELTQPLSVSVALGQTARITCSGDNLGTYYAHWYQQKPGQAPVLVIYSQSHRPSGIPERFSGSNSGNTATLTISRAQAGDEADYYCGAWDAPSPELVFGGGTKLTVL
B4 gave an EC50 [1] of 1.7 nM.

B5: Y010903 (antibody, V domains shown)
VH: EVQLVESGGGLVKPGGSLRLSCAASGFTFSNAWMSWVRQAPGKGLEWVGRIKSKTDAGTTDYAAPVKGRFTISRDDSKNTLYLQMNSLKTEDTAVYYCARASHRLHSLFDVWGQGTLVTVSS
VL: B2 VL with I91G, T92L, R93F, V96H
B5 showed an EC50 [1] of 3.2 nM.

B6: Y010910 (antibody, V domains shown)
VH: EVQLVESGGGLVKPGGSLRLSCAASGFTFSNAWMSWVRQAPGKGLEWVGRIKSKTDAGTTDYAAPVKGRFTISRDDSKNTLYLQMNSLKTEDTAVYYCARVASPSAPGGFDYWGQGTLVTVSS
VL: B1 VL with L91S, I92L, F94A, L96F
B6 showed an EC50 [1] of 10 nM.

B7: Y010417 (antibody, V domains shown)
VH: EVQLVQSGAEVKKPGESLKISCKGSGYSFTSYWIGWVRQMPGKGLEWMGIIYPGDSDTRYSPSFQGQVTISADKSISTAYLQWSSLKASDTAMYYCARGSSAASGLSGDLWGQGTLVTVSS
VL: DIQMTQSPSSLSASVGDRVTITCRASQSISSYLNWYQQKPGKAPKLLIYAASSLQSGVPSRFSGSGSGTDFTLTISSLQPEDFATYYCQQDYYSPFTFGQGTKVEIK
Binder B7 has an EC50 [2] of 2.8 nM.

B8: Y010906 (antibody, V domains shown)
VH: EVQLVESGGGLVKPGGSLRLSCAASGFTFSNAWMSWVRQAPGKGLEWVGRIKSKTDAGTTDYAAPVKGRFTISRDDSKNTLYLQMNSLKTEDTAVYYCARDEYPWGWFDVWGQGTLVTVSS
VL: B1 VL with L11V, N31S, Y32W, V43A, T53S, V83F, L91Y, F94Y
B8 gave an EC50 [1] of 2 nM.
